From patent US20160252497A1 (NGM BIOPHARMACEUTICALS, published 2016) come the findings set out here.

In test [1] the target is Human FGFR4 on primary human hepatocytes (human, UniProt P22455 22-802). Kind of test: cell-based or functional assay.
The target of test [2] is Human FGFR4 and KLB expressed endogenously on Hep3B cells (human, UniProt P22455 22-802; Q86Z14 1-1044). Kind of test: cell-based or functional assay.
Test [3] has as its target T1, Mouse FGFR4 on cells (L6 cells transfected with FGFR4 alone; primary mouse hepatocytes) (mouse, UniProt Q03142 17-799).
T1 sequence (looked up): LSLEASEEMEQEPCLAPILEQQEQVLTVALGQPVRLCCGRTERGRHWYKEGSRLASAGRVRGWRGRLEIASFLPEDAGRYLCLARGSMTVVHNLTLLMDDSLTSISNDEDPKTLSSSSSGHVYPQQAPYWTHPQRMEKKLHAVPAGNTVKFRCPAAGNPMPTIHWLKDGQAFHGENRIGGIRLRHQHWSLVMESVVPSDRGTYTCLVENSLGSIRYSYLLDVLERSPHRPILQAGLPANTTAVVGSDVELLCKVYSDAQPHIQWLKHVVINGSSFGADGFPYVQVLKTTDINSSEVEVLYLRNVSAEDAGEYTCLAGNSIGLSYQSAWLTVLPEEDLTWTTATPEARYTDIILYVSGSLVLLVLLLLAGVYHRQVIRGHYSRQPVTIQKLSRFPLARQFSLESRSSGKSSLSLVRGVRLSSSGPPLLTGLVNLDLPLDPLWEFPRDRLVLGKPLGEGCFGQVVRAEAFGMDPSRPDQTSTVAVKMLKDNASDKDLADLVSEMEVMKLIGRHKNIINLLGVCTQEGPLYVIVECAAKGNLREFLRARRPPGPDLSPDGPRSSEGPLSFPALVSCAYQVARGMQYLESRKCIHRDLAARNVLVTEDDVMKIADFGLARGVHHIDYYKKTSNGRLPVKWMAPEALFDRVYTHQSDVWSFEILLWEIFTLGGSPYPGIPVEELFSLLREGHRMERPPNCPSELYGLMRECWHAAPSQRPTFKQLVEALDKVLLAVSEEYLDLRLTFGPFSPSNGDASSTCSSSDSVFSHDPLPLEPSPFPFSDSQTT
Description: cell-based or functional assay.

The target of test [4] is Rat FGFR4 on primary rat hepatocytes (rat, UniProt Q498D6 17-800). Description: cell-based or functional assay.
The target in test [5] is Mouse FGFR4 and mouse KLB co-expressed on rat L6 cells (mouse, UniProt Q03142 17-799; Q99N32 1-1043). Kind of test: cell-based or functional assay.
The target in test [6] is T2, Fc fusion protein of the extracellular domain (ECD) of FGFR4.
T2 construct: extracellular domain; Immobilized on Biacore flow cells; also called FGFR4-Fc chimeric protein; FGFR4-Fc
Kind of test: Biacore SPR, ligand flowed over chip coated with FGFR4 ECD-Fc, steady state fit. An excerpt:
FIGS. 9A-9G depicts M70 binding and activation of FGFR4 in vitro. (A) Biacore SPR assay of the interaction between FGF19 and FGFR4-Fc chimeric proteins immobilized on flow cells. […] (B) Binding of M70 to FGFR4 by Biacore. Similar procedures to (A) were used. (C) Solid phase binding of M70 or FGF19 to FGFR4-KLB receptor complex. The bound ligands were detected using a biotinylated FGF19-specific polyclonal antibody. (D) Relative luciferase activity after stimulation with M70 or FGF19 in L6 cells transiently transfected with FGFR4 in the presence or absence of KLB. (E) M70 induces ERK phosphorylation in Hep3B cells. (F) M70 repressed Cyp7a1 expression in primary hepatocytes of mouse, rat, and human origin. Relative expression of Cyp7a1 mRNA in hepatocytes were determined by qRT-PCR and normalized to 18S RNA (mouse and rat) or actin (human) mRNA levels. (G) Repression of hepatic Cyp7a1 expression by M70 in mice. 12-week-old db/db mice were injected intraperitoneally with recombinant M70 or FGF19 protein. Mice were euthanized 4 hours after dosing and hepatic Cyp7a1 expression was evaluated by qRT-PCR and normalized to 18S RNA expression. Dose response curves of Cyp7a1 repression in mice were shown. All values represent mean±SEM.
To elucidate the molecular mechanism that underline M70's inability to induce liver tumors, the interaction of M70 to the known receptor complex of FGF19 was assessed. […]

Test [7] concerns the target T3, KLB (Klotho-beta), as used in the Biacore assay.
T3 construct: The form of KLB in the assay is not described; also called Klotho-β
Description: Biacore (data not shown). On the technique in general: In SPR one partner is held on a chip, and binding of the other changes the refractive index at the surface.

The target of test [8] is FGFR4-KLB receptor complex (solid phase binding assay). Kind of test: solid phase binding assay on the FGFR4-KLB receptor complex; bound ligand detected with a biotinylated FGF19-specific polyclonal antibody, absorbance at 450 nm. The text has this: (B) Binding of M70 to FGFR4 by Biacore. Similar procedures to (A) were used. (C) Solid phase binding of M70 or FGF19 to FGFR4-KLB receptor complex. The bound ligands were detected using a biotinylated FGF19-specific polyclonal antibody. (D) Relative luciferase activity after stimulation with M70 or FGF19 in L6 cells transiently transfected with FGFR4 in the presence or absence of KLB. (E) M70 induces ERK phosphorylation in Hep3B cells. (F) M70 repressed Cyp7a1 expression in primary hepatocytes of mouse, rat, and human origin. Relative expression of Cyp7a1 mRNA in hepatocytes were determined by qRT-PCR and normalized to 18S RNA (mouse and rat) or actin (human) mRNA levels. (G) Repression of hepatic Cyp7a1 expression by M70 in mice. 12-week-old db/db mice were injected intraperitoneally with recombinant M70 or FGF19 protein. Mice were euthanized 4 hours after dosing and hepatic Cyp7a1 expression was evaluated by qRT-PCR and normalized to 18S RNA expression. Dose response curves of Cyp7a1 repression in mice were shown. All values represent mean±SEM.
To elucidate the molecular mechanism that underline M70's inability to induce liver tumors, the interaction of M70 to the known receptor complex of FGF19 was assessed. Surface plasmon resonance (SPR) analysis was used to measure direct binding of M70 or FGF19 to FGFR4. […]

Sequence of Rat FGFR4 on primary rat hepatocytes (Q498D6 17-800): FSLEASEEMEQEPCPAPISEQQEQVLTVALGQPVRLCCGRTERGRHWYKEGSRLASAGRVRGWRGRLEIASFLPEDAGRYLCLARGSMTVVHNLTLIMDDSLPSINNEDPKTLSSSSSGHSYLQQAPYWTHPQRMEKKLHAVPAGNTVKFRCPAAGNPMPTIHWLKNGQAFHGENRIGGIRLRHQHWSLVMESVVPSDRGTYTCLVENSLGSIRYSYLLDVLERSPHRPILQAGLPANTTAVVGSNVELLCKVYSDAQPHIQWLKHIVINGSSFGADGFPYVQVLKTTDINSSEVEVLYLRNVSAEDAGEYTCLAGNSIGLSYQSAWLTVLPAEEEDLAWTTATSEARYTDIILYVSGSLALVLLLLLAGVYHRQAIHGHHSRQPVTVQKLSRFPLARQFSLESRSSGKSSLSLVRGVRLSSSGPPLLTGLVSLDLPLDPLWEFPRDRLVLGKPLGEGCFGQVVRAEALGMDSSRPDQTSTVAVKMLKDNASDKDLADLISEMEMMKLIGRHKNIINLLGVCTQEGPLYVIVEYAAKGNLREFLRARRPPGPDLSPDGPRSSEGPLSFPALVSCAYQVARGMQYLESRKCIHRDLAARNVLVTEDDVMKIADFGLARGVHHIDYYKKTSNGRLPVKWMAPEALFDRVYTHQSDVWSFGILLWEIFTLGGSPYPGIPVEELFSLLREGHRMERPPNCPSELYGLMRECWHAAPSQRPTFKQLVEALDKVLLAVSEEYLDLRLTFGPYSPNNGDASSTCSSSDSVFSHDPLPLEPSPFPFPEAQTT
Sequence of Mouse FGFR4 and mouse KLB co-expressed on rat L6 cells (Q99N32 whole entry, the tested form may be a part, one chain of several): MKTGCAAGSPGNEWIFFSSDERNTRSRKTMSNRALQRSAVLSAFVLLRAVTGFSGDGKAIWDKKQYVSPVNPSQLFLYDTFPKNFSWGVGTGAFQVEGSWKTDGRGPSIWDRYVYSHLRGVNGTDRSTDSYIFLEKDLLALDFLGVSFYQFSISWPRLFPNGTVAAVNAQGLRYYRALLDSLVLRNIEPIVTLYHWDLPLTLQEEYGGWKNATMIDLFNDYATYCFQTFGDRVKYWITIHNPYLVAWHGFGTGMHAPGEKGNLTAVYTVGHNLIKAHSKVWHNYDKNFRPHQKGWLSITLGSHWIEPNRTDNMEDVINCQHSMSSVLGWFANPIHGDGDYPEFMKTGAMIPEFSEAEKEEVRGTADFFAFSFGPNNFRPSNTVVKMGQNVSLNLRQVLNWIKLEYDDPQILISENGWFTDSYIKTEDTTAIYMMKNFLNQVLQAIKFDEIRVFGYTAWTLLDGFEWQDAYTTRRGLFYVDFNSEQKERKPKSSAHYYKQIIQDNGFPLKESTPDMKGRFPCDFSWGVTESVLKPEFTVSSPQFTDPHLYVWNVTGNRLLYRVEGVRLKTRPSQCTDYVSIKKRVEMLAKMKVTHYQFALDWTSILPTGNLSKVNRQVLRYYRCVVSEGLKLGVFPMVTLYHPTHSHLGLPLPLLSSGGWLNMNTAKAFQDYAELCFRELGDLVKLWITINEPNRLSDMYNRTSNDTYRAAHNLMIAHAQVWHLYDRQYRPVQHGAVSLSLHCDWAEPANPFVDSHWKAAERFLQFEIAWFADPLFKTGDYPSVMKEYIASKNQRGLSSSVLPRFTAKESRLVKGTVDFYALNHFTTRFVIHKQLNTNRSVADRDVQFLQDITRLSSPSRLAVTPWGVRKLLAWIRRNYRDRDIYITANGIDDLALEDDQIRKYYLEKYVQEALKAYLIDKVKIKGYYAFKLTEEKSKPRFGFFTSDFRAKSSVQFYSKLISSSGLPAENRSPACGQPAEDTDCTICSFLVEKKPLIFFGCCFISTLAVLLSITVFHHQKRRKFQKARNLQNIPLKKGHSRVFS
Sequence of FGFR4-KLB receptor complex (solid phase binding assay) (chain, as listed by the source, chain 1 of 2): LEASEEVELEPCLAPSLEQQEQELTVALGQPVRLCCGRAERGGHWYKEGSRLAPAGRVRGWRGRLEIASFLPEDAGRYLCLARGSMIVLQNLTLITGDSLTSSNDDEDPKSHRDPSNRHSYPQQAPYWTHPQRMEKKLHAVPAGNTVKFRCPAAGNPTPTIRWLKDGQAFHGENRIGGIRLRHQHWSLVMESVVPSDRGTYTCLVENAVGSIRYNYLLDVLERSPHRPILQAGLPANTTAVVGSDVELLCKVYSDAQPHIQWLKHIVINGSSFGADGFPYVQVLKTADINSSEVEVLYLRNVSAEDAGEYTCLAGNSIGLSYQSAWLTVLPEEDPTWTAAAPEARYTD
Sequence of FGFR4-KLB receptor complex (solid phase binding assay) (chain, as listed by the source, chain 2 of 2): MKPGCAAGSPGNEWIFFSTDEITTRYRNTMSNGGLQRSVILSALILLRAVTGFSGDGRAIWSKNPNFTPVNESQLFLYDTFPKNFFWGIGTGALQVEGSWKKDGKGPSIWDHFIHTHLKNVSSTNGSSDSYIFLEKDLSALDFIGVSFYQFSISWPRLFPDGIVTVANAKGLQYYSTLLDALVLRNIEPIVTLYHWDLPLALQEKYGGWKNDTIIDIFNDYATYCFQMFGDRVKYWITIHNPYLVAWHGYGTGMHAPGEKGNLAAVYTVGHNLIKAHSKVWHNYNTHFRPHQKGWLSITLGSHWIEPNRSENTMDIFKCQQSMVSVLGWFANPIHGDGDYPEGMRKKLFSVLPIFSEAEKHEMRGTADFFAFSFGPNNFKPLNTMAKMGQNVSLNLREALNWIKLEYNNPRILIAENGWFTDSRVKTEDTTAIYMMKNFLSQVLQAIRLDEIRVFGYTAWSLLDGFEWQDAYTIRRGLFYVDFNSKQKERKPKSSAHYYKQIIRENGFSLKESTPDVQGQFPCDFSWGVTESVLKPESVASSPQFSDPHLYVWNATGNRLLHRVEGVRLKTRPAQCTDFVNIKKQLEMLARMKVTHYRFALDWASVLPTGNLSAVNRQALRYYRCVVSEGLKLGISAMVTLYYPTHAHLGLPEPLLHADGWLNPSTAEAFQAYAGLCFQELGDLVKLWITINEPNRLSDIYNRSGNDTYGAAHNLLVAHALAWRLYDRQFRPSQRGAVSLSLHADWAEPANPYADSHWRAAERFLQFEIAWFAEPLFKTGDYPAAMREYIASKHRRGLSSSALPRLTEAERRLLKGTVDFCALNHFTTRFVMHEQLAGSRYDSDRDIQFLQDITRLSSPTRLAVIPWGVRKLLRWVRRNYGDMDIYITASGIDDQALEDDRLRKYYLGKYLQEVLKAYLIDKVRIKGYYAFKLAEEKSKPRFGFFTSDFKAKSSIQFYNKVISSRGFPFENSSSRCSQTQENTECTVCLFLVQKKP
T2 sequence (P22455 22-369): as the sequence (chain, as listed by the source, chain 1 of 2) above
Sequence of Human FGFR4 on primary human hepatocytes (P22455 22-802): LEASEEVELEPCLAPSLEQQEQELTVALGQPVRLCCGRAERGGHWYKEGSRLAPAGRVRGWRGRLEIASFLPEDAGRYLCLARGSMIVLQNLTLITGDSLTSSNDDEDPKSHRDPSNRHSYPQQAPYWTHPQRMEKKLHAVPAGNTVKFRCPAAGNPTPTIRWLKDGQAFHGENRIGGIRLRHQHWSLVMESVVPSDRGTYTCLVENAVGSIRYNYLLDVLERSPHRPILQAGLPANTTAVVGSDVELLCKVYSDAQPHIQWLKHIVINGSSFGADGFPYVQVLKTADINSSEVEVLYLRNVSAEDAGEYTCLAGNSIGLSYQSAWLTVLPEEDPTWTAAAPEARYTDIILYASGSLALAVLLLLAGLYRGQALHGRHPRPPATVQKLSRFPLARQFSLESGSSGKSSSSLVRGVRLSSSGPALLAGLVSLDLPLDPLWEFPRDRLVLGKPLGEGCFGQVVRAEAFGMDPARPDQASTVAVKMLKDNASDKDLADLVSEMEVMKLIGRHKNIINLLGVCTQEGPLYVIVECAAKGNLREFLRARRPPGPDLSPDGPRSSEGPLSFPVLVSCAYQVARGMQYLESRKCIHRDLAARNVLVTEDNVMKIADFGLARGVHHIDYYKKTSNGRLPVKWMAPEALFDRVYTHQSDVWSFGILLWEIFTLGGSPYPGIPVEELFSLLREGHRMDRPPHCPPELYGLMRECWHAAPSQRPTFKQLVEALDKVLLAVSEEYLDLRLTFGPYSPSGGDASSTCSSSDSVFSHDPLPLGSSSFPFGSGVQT
Sequence of Human FGFR4 and KLB expressed endogenously on Hep3B cells (P22455 22-802, chain 1 of 2): as the sequence (P22455 22-802) above
Sequence of Human FGFR4 and KLB expressed endogenously on Hep3B cells (Q86Z14 whole entry, chain 2 of 2): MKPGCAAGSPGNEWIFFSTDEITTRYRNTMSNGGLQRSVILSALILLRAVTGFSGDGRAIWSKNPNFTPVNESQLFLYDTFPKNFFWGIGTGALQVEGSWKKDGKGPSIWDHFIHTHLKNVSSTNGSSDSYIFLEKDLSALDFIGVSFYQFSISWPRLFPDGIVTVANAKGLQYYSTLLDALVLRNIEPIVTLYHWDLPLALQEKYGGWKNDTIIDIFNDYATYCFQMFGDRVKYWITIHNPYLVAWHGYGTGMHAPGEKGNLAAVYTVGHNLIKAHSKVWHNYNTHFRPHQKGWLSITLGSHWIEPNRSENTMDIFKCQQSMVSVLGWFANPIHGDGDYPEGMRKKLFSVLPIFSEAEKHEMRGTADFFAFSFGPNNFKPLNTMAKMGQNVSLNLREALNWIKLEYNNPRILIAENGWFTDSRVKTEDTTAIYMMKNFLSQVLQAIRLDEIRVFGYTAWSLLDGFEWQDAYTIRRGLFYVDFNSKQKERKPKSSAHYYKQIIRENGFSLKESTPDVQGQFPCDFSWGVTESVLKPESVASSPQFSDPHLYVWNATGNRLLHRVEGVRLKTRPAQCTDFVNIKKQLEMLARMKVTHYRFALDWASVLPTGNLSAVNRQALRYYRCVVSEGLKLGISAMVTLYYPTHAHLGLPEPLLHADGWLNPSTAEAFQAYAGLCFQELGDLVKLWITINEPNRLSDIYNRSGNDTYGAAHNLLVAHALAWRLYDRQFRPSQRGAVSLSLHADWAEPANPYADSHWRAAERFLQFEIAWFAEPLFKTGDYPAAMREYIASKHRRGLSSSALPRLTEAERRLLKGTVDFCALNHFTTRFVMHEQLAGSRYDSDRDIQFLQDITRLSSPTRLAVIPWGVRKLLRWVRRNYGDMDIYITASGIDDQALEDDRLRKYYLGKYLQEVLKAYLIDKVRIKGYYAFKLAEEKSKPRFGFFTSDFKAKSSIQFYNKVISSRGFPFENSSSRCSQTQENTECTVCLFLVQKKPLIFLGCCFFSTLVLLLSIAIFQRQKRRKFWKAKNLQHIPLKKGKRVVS

B1: M70 (FGF19 variant carrying 3 amino acid substitutions A30S, G31S, H33L and a 5-amino acid deletion) (ligand)
chain: MRDSSPLVHYGWGDPIRLRHLYTSGPHGLSSCFLRIRADGVVDCARGQSAHSLLEIKAVALRTVAIKGVHSVRYLCMGADGKMQGLLQYSEEDCAFEEEIRPDGYNVYRSEKHRLPVSLSSAKQRQLYKNRGFLPLSHFLPMLPMVPEEPEDLRGHLESDMFSSPLETDSMDPFGLVTGLEAVRSPSFEK
notes: Engineered variant of human FGF19; also called FGF19 variant M70; recombinant M70 protein
As a reminder, the Kd is the free concentration of one partner at which half of the binding sites on the other are occupied at equilibrium, for simple one-to-one binding. Read a high Kd as weaker binding. What is called EC50 (read off the curve) is the concentration giving half of the maximal effect. Turning to B1, the “repression of Cyp7a1 expression in primary human hepatocytes (IC50)” value in test [1] worked out at 6.8 pM. Also, the “phosphorylation and activation of ERK in Hep3B cells (EC50)” value in test [2] turned out to be 380 pM. Further, in test [3], the “GAL-Elk1 luciferase reporter activity in L6 cells transfected with FGFR4 alone (reduction in potency against FGFR4 plus KLB)” value was determined as 500 fold and the “repression of Cyp7a1 expression in primary mouse hepatocytes (IC50)” value turned out to be 0.64 pM. Also, the “repression of Cyp7a1 expression in primary rat hepatocytes (IC50)” value in test [4] amounted to 0.49 pM. The “GAL-Elk1 luciferase reporter activity in L6 cells co-expressing FGFR4 and KLB (EC50)” value in test [5] was found to be 38 pM. Moreover, the dissociation constant Kd in test [6] was determined as 134000 pM. This molecule also registered a dissociation constant Kd in test [7] of 24.1 pM. Further, in test [8], the “EC50 (read off the curve)” value was about 2000 pM.
